Consider four compounds from patent US11692007B2, “Amino deprotection using 3-(diethylamino)propylamine” (priority 2021, dated 2023).

Data set [1] deals with rat. Conditions: in vivo; cited from earlier work.
The procedure of data set [2]:
A sample of Degarelix, as a lyophilized powder of about 99% of purity, was dissolved at a concentration of 17 g/L in DMF with 10% of piperidine, TMG, TBA or DEAPA. The stability at RT was measured by HPLC at t=0 (t0), t=8 hr (t1), and t=24 hr (t3) using an Agilent 1260 Infinity II system, using a column Waters Xterra Shield RP18, 3.5 μm, 4.6×150 mm; temperature: 25° C.; sample concentration 0.5 mg/mL; injection volume: 10 μL; flow: 0.7 mL/min; buffer: 65% 40 mM ammonium acetate, pH 10:35% ACN; elution: isocratic, 0-30 min 100% buffer; detection: UV 245 nm.

The conditions of data set [3]: for Hydantoin impurity (VI) at RRT 1.03 / purity (HPLC) / specified impurity RRT 0.85 (X, unknown): RT; for Hydantoin impurity (VI) at RRT 1.03: at both t0 and t3 (24 h); for specified impurity RRT 0.85 (X, unknown): not present at t0. The protocol: Degarelix was kept in a solution of 10% DEAPA in DMF for 24 h to simulate conditions corresponding to those used for removal of Fmoc group during full SPPS. Samples were analyzed by HPLC at four checkpoints up to 24 h and the four HPLC profiles obtained were compared as shown in FIG. 3 and FIG. 4 (for detailed experimental procedure, see Example 7).
Example 7: HPLC analyses were performed on Agilent 1260 Infinity II system, using columns Waters Cortecs C18 2.7 μm, 4.6×150 mm; temperature: 30° C.; injection volume: 10 μL, UV: 245 nm; pH 5.5 Phosphate Buffer: 25 mM Potassium Phosphate to pH 5.5; pH 3.5 Phosphate Buffer: 25 mM Potassium Phosphate to pH 3.5; mobile phases: 75% pH 5.5 Buffer: 25% CH3CN (A); 65% pH 3.5 Buffer: 35% CH3CN (B); flow: 1.0 mL/min, sample concentration 0.5 mg/ml; gradient: 0-5 min 0% B, 5-45 min […], 45-46 min 100-0% B, 46-60 min 0% B.
The stability at RT was followed for 24 h at four check points, i.e. t0, 1 h (t1), 4 h (t2) and 24 h (t3).
Superimposed HPLC profiles are shown in FIG. 3 (Test 1) and FIG. 4 (Test 2).

Data set [4] relates to rats. The settings on record: acute oral toxicity; cited from earlier work.
Data set [5] concerns mice. Conditions: acute oral toxicity; cited from earlier work.
Data set [6] concerns rabbits. The settings on record: acute oral toxicity; cited from earlier work.
Data set [7] in a line: Stress stability test of resin-bound H-Ala-Lys-Asp-Gly-Tyr-Ile-OH with piperidine, DEAPA, TMG and TBA in DMF or NBP (aspartimide formation, HPLC). In kind it is physicochemical. How it is done:
A stress test was then performed whereby the model peptide was submitted to basic conditions to simulate repeated alpha-amino deprotection cycles. Resin-bound H-Ala-Lys-Asp-Gly-Tyr-Ile-OH (still bearing side-chain protections) was treated in parallel with 20% piperidine, 10% DEAPA, 5% TMG or 20% TBA solutions, in DMF or NBP, for 4 h at RT.
As shown in Scheme 2 above, the formation of the aspartimide side-product may be followed by nucleophilic attack onto the aspartimide ring with formation of further by-products, like amine-adducts (amine-mediated ring-opening) and alpha- and beta-peptides (water-mediated ring-opening).
The hexapeptide samples obtained after such treatments with the Fmoc cleavage solutions were analyzed by HPLC and the results are shown in Table 1 (for detailed experimental procedure, see Example 6).
In Table 1, Δ Asp indicates the amount of additional overall aspartimide impurities (comprising piperidides by-products) resulting from the stress test relative to the initial aspartimide amount (2.6%).
Examples 1-6: HPLC-MS analyses were performed on Agilent 1260 Infinity II system coupled to an electrospray ionization mass spectrometer (positive-ion mode, m/z=100-1500, fragmentor 30 V), using columns Agilent Zorbax-SB-C18 5 μm, 250×4.6 mm or Phenomenex Luna C18 5 μm, 250×4.6 mm; temperature: 25° C.; injection volume: 10 μL, UV: 220 nm, mobile phases: H2O+0.08% TFA (A) and CH3CN+0.08% TFA (B), flow: 0.5 mL/min or 1.0 mL/min.
100 mg of dry resin H-Ala-Lys-Asp-Gly-Tyr-Ile-Trt-PS (prepared as described in Example 2) were swelled in 2 mL of DMF or NBP for 30 minutes. The resin was filtered and a 2 mL solution of 10% DEAPA (or 20% piperidine, 5% TMG, 20% TBA) in DMF or NBP was added to the resin and stirred for 4 hours at RT. The resin was filtered, washed with DMF or NBP (3×2 mL) and with DCM (3×2 mL). Dry peptide resin was suspended in 3 mL of the mixture TFA/TIS/H2O (90/5/5 v/v/v) and stirred for 2 h. The resin was filtered off and diisopropylether (10 mL) cooled to 4° C. was added to the solution. The peptide was filtered and dried in vacuo to obtain crude H-Ala-Lys-Asp-Gly-Tyr-Ile-OH (II) and aspartimide impurity (III) in different ratios according to the used conditions.
Table 1 in the description lists the results. ΔAsp indicates the difference between the aspartimide amount formed after stress tests (including piperidides if present) and that arising from the hexapeptide synthesis (2.6%, see Example 2).
HPLC-MS analysis gradient: 0-30 min 10-40% B; flow: 0.5 mL/min.

The mark [8] stands for this setting: 24 hr at RT, 10% DEAPA in DMF, 17 g/L.
[9] abbreviates: 24 hr at RT, 10% TBA in DMF, 17 g/L.
[10] abbreviates: 24 hr at RT, 10% TMG in DMF, 17 g/L.
Where [11] appears, read: 24 hr at RT, 10% piperidine in DMF, 17 g/L.
Where [12] appears, read: duration 0, base solution none, 17 g/L in DMF.
[13] abbreviates: Test 1, about 170 g/L in DMF with 10% DEAPA, t3 (24 h).
[14] abbreviates: Test 2, about 17 g/L in DMF with 10% DEAPA, t3 (24 h).
Where [15] appears, read: 10% DEAPA in DMF, 4 h at RT, resin-bound.
The mark [16] stands for this setting: 10% DEAPA in NBP, 4 h at RT, resin-bound.
Setting [17] is: 20% TBA in DMF, 4 h at RT, resin-bound.
The mark [18] stands for this setting: 20% TBA in NBP, 4 h at RT, resin-bound.
The mark [19] stands for this setting: 20% piperidine in DMF, 4 h at RT, resin-bound.
[20] abbreviates: 20% piperidine in NBP, 4 h at RT, resin-bound.
The mark [21] stands for this setting: starting point, after synthesis in DMF with 20% pip, before stress test.

As usually defined, the LD50 is the dose expected to kill half of the subjects tested.

Where two headings read alike, the source gives them in different places. Marks after values point to notes of the source that are not given here. Non-standard residues stand in square brackets, D forms with d. Residues, ends and D or L forms follow the SMILES beside them. *: point of attachment. dPhe(4-NHCONH2) = NC(=O)Nc1ccc(C[C@@H](N)C(=O)O)cc1; Dihydroorotyl(S) = O=C1C[C@@H](C(=O)*)NC(=O)N1; dPhe(4-Cl) = N[C@H](Cc1ccc(Cl)cc1)C(=O)O; Phe(4-NH2) = Nc1ccc(C[C@H](N)C(=O)O)cc1; d2Nal = N[C@H](Cc1ccc2ccccc2c1)C(=O)O; Lys(iPr) = CC(C)NCCCC[C@H](N)C(=O)O; d3Pal = N[C@H](Cc1cccnc1)C(=O)O

In the case of `CCN(CC)CCCN` [DEAPA, 3-(diethylamino)propylamine], the LD50 in data set [1] is reported as 830 mg/kg.
As for `CC(=O)N[C@H](Cc1ccc2ccccc2c1)C(=O)N[C@H](Cc1ccc(Cl)cc1)C(=O)N[C@H](Cc1cccnc1)C(=O)N[C@@H](CO)C(=O)N[C@@H](Cc1ccc(NC(=O)[C@@H]2CC(=O)NC(=O)N2)cc1)C(=O)N[C@H](Cc1ccc(NC(N)=O)cc1)C(=O)N[C@@H](CC(C)C)C(=O)N[C@@H](CCCCNC(C)C)C(=O)N1CCC[C@H]1C(=O)N[C@H](C)C(N)=O` [Degarelix, Ac-D-Nal-D-Cpa-D-Pal-Ser-Aph(Hor)-D-Aph(Cbm)-Leu-Lys(iPr)-Pro-D-Ala-NH2] (Ac-[d2Nal][dPhe(4-Cl)][d3Pal]S[Phe(4-NH2)](Dihydroorotyl(S))[dPhe(4-NHCONH2)]L[Lys(iPr)]P[dA]-NH2), the Degarelix % in data set [2] (setting [8]) is recorded as 99.97%; in data set [2] (setting [9]) it was 99.96%; in data set [2] (setting [10]), 98.7%; in data set [2] (setting [11]), 99.96%; in data set [2] (setting [12]) it was 99.97%. The “Hydantoin VI %” value in data set [2] (setting [8]) came out at 0.03%; in data set [2] (setting [9]), 0.04%; in data set [2] (setting [10]) it was 1.3%; in data set [2] (setting [11]) it was 0.04%; in data set [2] (setting [12]), 0.03%. In addition, the “amount of hydantoin impurity (VI)” value in data set [2] (after 24-hours treatment with DEAPA (10% in DMF)) was “unchanged”. For the same compound, in data set [3] (10% DEAPA in DMF, up to 24 h), the degradation of degarelix result is given as “No significant degradation”. For the same compound, the “increase of hydantoin impurity” value in data set [3] (10% DEAPA in DMF, up to 24 h) is “no increase”. The “Hydantoin impurity (VI) at RRT 1.03” value came out at 0.10% in data set [3] (Test 1, about 170 g/L in DMF with 10% DEAPA) and 0.09% in data set [3] (Test 2, about 17 g/L in DMF with 10% DEAPA). Moreover, the “purity (HPLC)” value in data set [3] (Test 1, about 170 g/L in DMF with 10% DEAPA, t0) was 99.17%; in data set [3] (setting [13]), 99.10%; in data set [3] (Test 2, about 17 g/L in DMF with 10% DEAPA, t0), 99.18%; in data set [3] (setting [14]) it was 99.10%. For the same compound, the “specified impurity RRT 0.85 (X, unknown)” value in data set [3] (setting [13]) is listed as 0.06%; in data set [3] (setting [14]), 0.04%.
Consider `C1CCNCC1` [piperidine], for which the figures for the LD50 in data set [4], in data set [5] and in data set [6] were 400 mg/kg, 30 mg/kg and 145 mg/kg, respectively.
Consider “H-Ala-Lys-Asp-Gly-Tyr-Ile-OH (H-AKDGYI-OH) [III]”, for which the “Aspartimide (IV) (A %)” value in data set [7] (5% TMG in DMF, 4 h at RT, resin-bound) is on record as 85.5 A %; in data set [7] (5% TMG in NBP, 4 h at RT, resin-bound), 72.9 A %; in data set [7] (setting [15]), 10.1 A %; in data set [7] (setting [16]) it was 4.2 A %; in data set [7] (setting [17]), 29.3 A %; in data set [7] (setting [18]), 20.0 A %. For the same compound, the “Aspartimide (IV) (A %)” value in data set [7] (setting [19]) was 7.2 A %; in data set [7] (setting [20]), 7.1 A %; in data set [7] (setting [21]), 2.6 A %. In addition, the “III (A %)” value in data set [7] (5% TMG in DMF, 4 h at RT, resin-bound, sum of alpha- and beta-peptide) is reported as 14.5^a A %; in data set [7] (5% TMG in NBP, 4 h at RT, resin-bound, sum of alpha- and beta-peptide), 27.1^a A %; in data set [7] (setting [15]) it was 89.9 A %; in data set [7] (setting [16]) it was 95.8 A %; in data set [7] (setting [17]), 70.7 A %; in data set [7] (setting [18]), 80.0 A %. Besides, the “III (A %)” value in data set [7] (setting [19]) is recorded as 86.5 A %; in data set [7] (setting [20]), 90.0 A %; in data set [7] (setting [21]), 97.4 A %. In addition, the “Δ Asp (A %)” value in data set [7] (5% TMG in DMF, 4 h at RT, relative to initial 2.6%) worked out at 82.9 A %; in data set [7] (5% TMG in NBP, 4 h at RT, relative to initial 2.6%), 70.3 A %; in data set [7] (10% DEAPA in DMF, 4 h at RT, relative to initial 2.6%) it was 7.5 A %; in data set [7] (10% DEAPA in NBP, 4 h at RT, relative to initial 2.6%), 1.6 A %; in data set [7] (20% TBA in DMF, 4 h at RT, relative to initial 2.6%), 26.7 A %; in data set [7] (20% TBA in NBP, 4 h at RT, relative to initial 2.6%) it was 17.4 A %. Also, the “Δ Asp (A %)” value in data set [7] (20% piperidine in DMF, 4 h at RT, additional aspartimide impurities incl. piperidides relative to initial 2.6%) is reported as 10.9 A %; in data set [7] (20% piperidine in NBP, 4 h at RT, incl. piperidides, relative to initial 2.6%), 7.4 A %. The “Piperidides (V) (A %)” value was found to be 6.3 A % in data set [7] (setting [19]) and 2.9 A % in data set [7] (setting [20]).
